Experimental data taken from paper PMC10540216, “Activity Guided Azide-methyllysine Photo-trapping for Substrate Profiling of Lysine Demethylases” (Journal of the American Chemical Society, 2023).

B1: CALD1_HUMAN (protein, UniProt Q05682 1-793, looked up)
Caldesmon: MDDFERRRELRRQKREEMRLEAERIAYQRNDDDEEEAARERRRRARQERLRQKQEEESLGQVTDQVEVNAQNSVPDEEAKTTTTNTQVEGDDEAAFLERLARREERRQKRLQEALERQKEFDPTITDASLSLPSRRMQNDTAENETTEKEEKSESRQERYEIEETETVTKSYQKNDWRDAEENKKEDKEKEEEEEEKPKRGSIGENQVEVMVEEKTTESQEETVVMSLKNGQISSEEPKQEEEREQGSDEISHHEKMEEEDKERAEAERARLEAEERERIKAEQDKKIADERARIEAEEKAAAQERERREAEERERMREEEKRAAEERQRIKEEEKRAAEERQRIKEEEKRAAEERQRIKEEEKRAAEERQRARAEEEEKAKVEEQKRNKQLEEKKHAMQETKIKGEKVEQKIEGKWVNEKKAQEDKLQTAVLKKQGEEKGTKVQAKREKLQEDKPTFKKEEIKDEKIKKDKEPKEEVKSFMDRKKGFTEVKSQNGEFMTHKLKHTENTFSRPGGRASVDTKEAEGAPQVEAGKRLEELRRRRGETESEEFEKLKQKQQEAALELEELKKKREERRKVLEEEEQRRKQEEADRKLREEEEKRRLKEEIERRRAEAAEKRQKMPEDGLSDDKKPFKCFTPKGSSLKIEERAEFLNKSVQKSSGVKSTHQAAIVSKIDSRLEQYTSAIEGTKSAKPTKPAASDLPVPAEGVRNIKSMWEKGNVFSSPTAAGTPNKETAGLKVGVSSRINEWLTKTPDGNKSPAPKPSDLRPGDVSSKRNLWEKQSVDKVTSPTKV
B2: HXK2_HUMAN (protein, UniProt P52789 1-917, looked up)
Hexokinase-2: MIASHLLAYFFTELNHDQVQKVDQYLYHMRLSDETLLEISKRFRKEMEKGLGATTHPTAAVKMLPTFVRSTPDGTEHGEFLALDLGGTNFRVLWVKVTDNGLQKVEMENQIYAIPEDIMRGSGTQLFDHIAECLANFMDKLQIKDKKLPLGFTFSFPCHQTKLDESFLVSWTKGFKSSGVEGRDVVALIRKAIQRRGDFDIDIVAVVNDTVGTMMTCGYDDHNCEIGLIVGTGSNACYMEEMRHIDMVEGDEGRMCINMEWGAFGDDGSLNDIRTEFDQEIDMGSLNPGKQLFEKMISGMYMGELVRLILVKMAKEELLFGGKLSPELLNTGRFETKDISDIEGEKDGIRKAREVLMRLGLDPTQEDCVATHRICQIVSTRSASLCAATLAAVLQRIKENKGEERLRSTIGVDGSVYKKHPHFAKRLHKTVRRLVPGCDVRFLRSEDGSGKGAAMVTAVAYRLADQHRARQKTLEHLQLSHDQLLEVKRRMKVEMERGLSKETHASAPVKMLPTYVCATPDGTEKGDFLALDLGGTNFRVLLVRVRNGKWGGVEMHNKIYAIPQEVMHGTGDELFDHIVQCIADFLEYMGMKGVSLPLGFTFSFPCQQNSLDESILLKWTKGFKASGCEGEDVVTLLKEAIHRREEFDLDVVAVVNDTVGTMMTCGFEDPHCEVGLIVGTGSNACYMEEMRNVELVEGEEGRMCVNMEWGAFGDNGCLDDFRTEFDVAVDELSLNPGKQRFEKMISGMYLGEIVRNILIDFTKRGLLFRGRISERLKTRGIFETKFLSQIESDCLALLQVRAILQHLGLESTCDDSIIVKEVCTVVARRAAQLCGAGMAAVVDRIRENRGLDALKVTVGVDGTLYKLHPHFAKVMHETVKDLAPKCDVSFLQSEDGSGKGAALITAVACRIREAGQR
B3: AT2A2_HUMAN (protein, UniProt P16615 1-1042, looked up)
Sarcoplasmic/endoplasmic …: MENAHTKTVEEVLGHFGVNESTGLSLEQVKKLKERWGSNELPAEEGKTLLELVIEQFEDLLVRILLLAACISFVLAWFEEGEETITAFVEPFVILLILVANAIVGVWQERNAENAIEALKEYEPEMGKVYRQDRKSVQRIKAKDIVPGDIVEIAVGDKVPADIRLTSIKSTTLRVDQSILTGESVSVIKHTDPVPDPRAVNQDKKNMLFSGTNIAAGKAMGVVVATGVNTEIGKIRDEMVATEQERTPLQQKLDEFGEQLSKVISLICIAVWIINIGHFNDPVHGGSWIRGAIYYFKIAVALAVAAIPEGLPAVITTCLALGTRRMAKKNAIVRSLPSVETLGCTSVICSDKTGTLTTNQMSVCRMFILDRVEGDTCSLNEFTITGSTYAPIGEVHKDDKPVNCHQYDGLVELATICALCNDSALDYNEAKGVYEKVGEATETALTCLVEKMNVFDTELKGLSKIERANACNSVIKQLMKKEFTLEFSRDRKSMSVYCTPNKPSRTSMSKMFVKGAPEGVIDRCTHIRVGSTKVPMTSGVKQKIMSVIREWGSGSDTLRCLALATHDNPLRREEMHLEDSANFIKYETNLTFVGCVGMLDPPRIEVASSVKLCRQAGIRVIMITGDNKGTAVAICRRIGIFGQDEDVTSKAFTGREFDELNPSAQRDACLNARCFARVEPSHKSKIVEFLQSFDEITAMTGDGVNDAPALKKAEIGIAMGSGTAVAKTASEMVLADDNFSTIVAAVEEGRAIYNNMKQFIRYLISSNVGEVVCIFLTAALGFPEALIPVQLLWVNLVTDGLPATALGFNPPDLDIMNKPPRNPKEPLISGWLFFRYLAIGCYVGAATVGAAAWWFIAADGGPRVSFYQLSHFLQCKEDNPDFEGVDCAIFESPYPMTMALSVLVTIEMCNALNSLSENQSLLRMPPWENIWLVGSICLSMSLHFLILYVEPLPLIFQITPLNVTQWLMVLKISLPVILMDETLKFVARNYLEPGKECVQPATKSCSFSACTDGISWPFVLLIMPLVIWVYSTDTNFSDMFWS
B4: CX057_HUMAN (protein, UniProt Q6NSI4 1-855, looked up)
RPA-related protein RADX: MSGESGQPEAGPSHAGLDWPNPERNRAGVPGGVIRRAGSQGPRSWIQKVLEQIMDSPRQCVTPSEVVPVTVLAVQRYLLEDEPRDTVPKPPLYCYDVTISDGVYQEKCYLDPSLNSLVYQNILKVGIQMRISRVSCLYNEKRIGQGILCIDNVHCGETSDSISLETPFRNRAHQEKPERPLRGGKSHYLALWNNEDPYGDIWLTDKQPEEHNFSDTKIISLSHLEMTWTNRRNFPALLVRILHKSKLRYYGKPDKKMIEPYQTFLEVADSSGTVSVIMWNALCPEWYKSLRVGLVLLLQDYSVKKSYPFRIQPVPVDPQIKLISTMEICLNLRDPPTNIIIIPEKQVKPEWRLPKLNHRFTTRSELDDMPENCICDVIGLLVFVGRVQRSKKKENREDFWSYRWIHIADGTSEQPFIVELFSTSQPEIFENIYPMAYFVCTQLKVVRNDNQVPKLLYLTTTNESGVFITGHRGQPYTYDAKVKNFIQWIRTKSDSGEQKNMVIGGYYPYPPVPETFSKYSSSIKVESLLTAISEVRKEIEDLQYREQKRIAIQGIITAIKYIPHSSATESASASETLRNANRPSTSQAARVEIQERNGKRHQDDEPVNSQYFQTTSTNLSLSNKIRILQGPHANPVAVPQPGASVQTKGIKPGMPSIFNRRANINANLQGKARKTISDRWESQLWREKKFGLIDHLHYSRVYPESIPRKFMFEHRKFLSDQYNSQPAKYVPPEGRPPKLDDFKSARSLGHFEVTILGLNHEIAIDVAFLPMYCPEDIRTSQIDTLLTSMNYSCAYPQDTTGNDRLPGPRAVAGDIIKAATELDRVHIVGILDICNLGNNKVEVYLHKIYSPENTS
B5: CPSF6_HUMAN (protein, UniProt Q16630 1-551, looked up)
Cleavage and polyadenylation …: MADGVDHIDIYADVGEEFNQEAEYGGHDQIDLYDDVISPSANNGDAPEDRDYMDTLPPTVGDDVGKGAAPNVVYTYTGKRIALYIGNLTWWTTDEDLTEAVHSLGVNDILEIKFFENRANGQSKGFALVGVGSEASSKKLMDLLPKRELHGQNPVVTPCNKQFLSQFEMQSRKTTQSGQMSGEGKAGPPGGSSRAAFPQGGRGRGRFPGAVPGGDRFPGPAGPGGPPPPFPAGQTPPRPPLGPPGPPGPPGPPPPGQVLPPPLAGPPNRGDRPPPPVLFPGQPFGQPPLGPLPPGPPPPVPGYGPPPGPPPPQQGPPPPPGPFPPRPPGPLGPPLTLAPPPHLPGPPPGAPPPAPHVNPAFFPPPTNSGMPTSDSRGPPPTDPYGRPPPYDRGDYGPPGREMDTARTPLSEAEFEEIMNRNRAISSSAISRAVSDASAGDYGSAIETLVTAISLIKQSKVSADDRCKVLISSLQDCLHGIESKSYGSGSRRERSRERDHSRSREKSRRHKSRSRDRHDDYYRERSRERERHRDRDRDRDRERDREREYRHR
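Note: lysates from HEK293T cells pretreated with a KDM4 inhibitor to raise proteome methylation, affinity-purified after ±UV, gel-resolved, trypsin-digested, with exclusive unique peptides per protein averaged per condition.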

These molecules were tested on KDM4A-I71AzF (assay: CASI: photo-crosslinking with HEK293T cell extracts, StrepTactin enrichment and LC-MS/MS proteomics). Details: sheet "Final results but with 0.01".
Assay type: binding, human
For B1, the “Fold change (+UV/-UV)” value was 1.5.
For B2, the “Fold change (+UV/-UV)” value was 0.7273.
In the case of B3, the “Fold change (+UV/-UV)” value is reported as 0.75.
B4 was tested, and the “Fold change (+UV/-UV)” value was 0.
For B5, the “Fold change (+UV/-UV)” value was 0.875.
